This experiment addresses T1, HA-tagged PPP3CA (calcineurin A subunit, PP2B) (UniProt Q08209 1-521, limits assumed).
T1 construct: Exogenously expressed in COS7 cells and immunoprecipitated with anti-HA antibody; not shown: HA tag
The experiment in a line: co-immunoprecipitation from co-transfected COS7 cells (anti-HA IP, anti-Flag blot).

B1: Flag-tagged ΔPDIIIT-C1958 (other, not shown: small tags and cut ends)
chain: MGLKMSCLKGFQMCVSSSSSSHDEAPVLNDKHLDVPPTPTGMMLPRDLGSTVWLDETGSCPDDGEIDPEA
notes: also called ΔPDIIIT mutant
Regarding B1, the binding result is reported as “no binding”.

(Values after patent US20090215666A1 (ONCOTHERAPY SCIENCE, published 2009).)
